Patent US20040072268A1 (published 2004)
One block for each binder: values may come before it.

Experiments:
[1] = molecular target: T1, Jab1/CSN5 subunit of signalosome, recombinant (UniProt Q92905 1-334, limits assumed); assay: protein-protein interaction assay with GST-BRCA1 fragments
T1 construct: Produced in recombinant form as a control JAMM domain protein; the construct is not described
Procedure: (§1) Recombinant BRCA1 and BARD1 was purified as described (Chen, et al. (2002) J. Biol. Chem. 277:22085-22092). […] Gluthatione-sepharose beads (Pharmacia, Peapack, N.J.), previously equilibrated in binding buffer, were added to the samples and inverted for an additionnal 2 hours at 4° C. Beads were collected by centrifugation at 2000×g, 30 seconds, washed several times in binding buffer containing 500 mM KCl and 0.1% NP40 and resuspended in 2× SDS loading buffer. Proteins were resolved by SDS-PAGE and western blot analysis was performed using anti-FLAG® antibodies (SIGMA, St. Louis, Mo.).

truncated BRCA1 (1-509) = molecular target: T2, truncated BRCA1 (1-509) (Homo sapiens (Human), UniProt P38398 1-509); assay: affinity purification of the truncated BRCA1 complex from a stable 293-derived cell line (co-purification; may be indirect)
T2 construct: Stably expressed in a 293-derived cell line; keeps the nuclear localization signal and the Ring domain; also called BRCA1 truncation

[2] = molecular target: T3, (His)6-FLAG®-BRCC36 protein (Homo sapiens, UniProt P46736 1-316); assay: GST pull-down: 5 µg (His)6-FLAG-BRCC36 with GST-BRCA1 fragment, anti-FLAG western blot
T3 construct: Produced in bacteria and purified; also called recombinant BRCC36; C6.1A; not shown: (His)6 and FLAG tags
Procedure: as §1

T1 sequence (Q92905 whole entry, the tested form may be a part): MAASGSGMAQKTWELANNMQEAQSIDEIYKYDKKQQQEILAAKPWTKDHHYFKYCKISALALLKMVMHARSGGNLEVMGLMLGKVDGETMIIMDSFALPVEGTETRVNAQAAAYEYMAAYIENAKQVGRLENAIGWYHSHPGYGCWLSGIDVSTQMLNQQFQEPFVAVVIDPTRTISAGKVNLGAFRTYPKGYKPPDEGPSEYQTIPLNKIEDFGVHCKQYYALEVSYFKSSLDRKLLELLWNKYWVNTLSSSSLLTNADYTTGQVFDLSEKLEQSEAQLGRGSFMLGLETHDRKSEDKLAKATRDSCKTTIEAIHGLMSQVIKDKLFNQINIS
T3 sequence (P46736 whole entry, the tested form may be a part): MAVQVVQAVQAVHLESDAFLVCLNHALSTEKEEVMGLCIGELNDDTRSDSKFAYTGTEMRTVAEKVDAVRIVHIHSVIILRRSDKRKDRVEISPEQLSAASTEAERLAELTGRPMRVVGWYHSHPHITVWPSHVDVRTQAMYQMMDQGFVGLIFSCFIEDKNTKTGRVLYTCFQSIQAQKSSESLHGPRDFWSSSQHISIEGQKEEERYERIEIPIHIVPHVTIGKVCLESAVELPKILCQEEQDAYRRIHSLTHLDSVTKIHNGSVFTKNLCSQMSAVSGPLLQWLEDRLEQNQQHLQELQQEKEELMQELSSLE

binding result [1]: no binding
B1: GST-BRCA1 fragment F1 (BRCA1 residues 1-324) (other)
chain: MDLSALRVEEVQNVINAMQKILECPICLELIKEPVSTKCDHIFCKFCMLKLLNQKKGPSQCPLCKNDITKRSLQESTRFSQLVEELLKIICAFQLDTGLEYANSYNFAKKENNSPEHLKDEVSIIQSMGYRNRAKRLLQSEPENPSLQETSLSVQLSNLGTVRTLRTKQRIQPQKTSVYIELGSDSSEDTVNKATYCSVGDQELLQITPQGTRDEISLDSAKKAACEFSETDVTNTEHHQPSNNDLNTTEKRAAERHPEKYQGSSVSNLHVEPCGTNTHASSLQHENSSLLLTKDRMNVEKAEFCNKSKQPGLARSQHNRWAGS
notes: Produced in bacteria; also called fragment 1; not shown: glutathione S-transferase (GST) fusion tag

binding result (truncated BRCA1 (1-509)): no binding
B2: BRE (other)
chain: MSPEVALNRISPMLSPFISSVVRNGKVGLDATNCLRITDLKSGCTSLTPGPNCDRFKLHIPYAGETLKWDIIFNAQYPELPPDFIFGEDAEFLPDPSALQNLASWNPSNPECLLLVVKELVQQYHQFQCSRLRESSRLMFEYQTLLEEPQYGENMEIYAGKKNNWTGEFSARFLLKLPVDFSNIPTYLLKDVNEDPGEDVALLSVSFEDTEATQVYPKLYLSPRIEHALGGSSALHIPAFPGGGCLIDYVPQVCHLLTNKVQYVIQGYHKRREYIAAFLSHFGTGVVEYDAEGFTKLTLLLMWKDFCFLVHIDLPLFFPRDQPTLTFQSVYHFTNSGQLYSQAQKNYPYSPRWDGNEMAKRAKGCQGSRDACSPWEQVLAFAVAKTGCKLLQPQRNWPSSRGPPWRASEGERTAQ
notes: also called BRCC45; BRCC45/BRE

binding result [2]: no binding
binding result [1]: no binding
B3: GST-BRCA1 fragment F5 (BRCA1 residues 1005-1313) (other)
chain: EHSMSPEREMGNENIPSTVSTISRNNIRENVFKEASSSNINEVGSSTNEVGSSINEIGSSDENIQAELGRNRGPKLNAMLRLGVLQPEVYKQSLPGSNCKHPEIKKQEYEEVVQTVNTDFSPYLISDNLEQPMGSSHASQVCSETPDDLLDDGEIKEDTSFAENDIKESSAVFSKSVQKGELSRSPSPFTHTHLAQGYRRGAKKLESSEENLSSEDEELPCFQHLLFGKVNNIPSQSTRHSTVATECLSKNTEENLLSLKNSLNDCSNQVILAKASQEHHLSEETKCSASLFSSQCSELEDLTANTNTQ
notes: Produced in bacteria; also called fragment 5; not shown: glutathione S-transferase (GST) fusion tag

binding result [1]: no binding
B4: GST-BRCA1 fragment F4 (BRCA1 residues 758-1064) (other)
chain: LQTERSVESSSISLVPGTDYGTQESISLLEVSTLGKAKTEPNKCVSQCAAFENPKGLIHGCSKDNRNDTEGFKYPLGHEVNHSRETSIEMEESELDAQYLQNTFKVSKRQSFAPFSNPGNAEEECATFSAHSGSLKKQSPKVTFECEQKEENQGKNESNIKPVQTVNITAGFPVVGQKDKPVDNAKCSIKGGSRFCLSSQFRGNETGLITPNKHGLLQNPYRIPPLFPIKSFVKTKCKKNLLEENFEEHSMSPEREMGNENIPSTVSTISRNNIRENVFKEASSSNINEVGSSTNEVGSSINEIGSS
notes: Produced in bacteria; also called fragment 4; not shown: glutathione S-transferase (GST) fusion tag

binding result [1]: no binding
B5: GST-BRCA1 fragment F3 (BRCA1 residues 502-802) (other)
chain: LKRKRRPTSGLHPEDFIKKADLAVQKTPEMINQGTNQTEQNGQVMNITNSGHENKTKGDSIQNEKNPNPIESLEKESAFKTKAEPISSSISNMELELNIHNSKAPKKNRLRRKSSTRHIHALELVVSRNLSPPNCTELQIDSCSSSEEIKKKKYNQMPVRHSRNLQLMEGKEPATGAKKSNKPNEQTSKRHDSDTFPELKLTNAPGSFTKCSNTSELKEFVNPSLPREEKEEKLETVKVSNNAEDPKDLMLSGERVLQTERSVESSSISLVPGTDYGTQESISLLEVSTLGKAKTEPNKCV
notes: Produced in bacteria; also called fragment 3; not shown: glutathione S-transferase (GST) fusion tag

binding result [2]: no binding
binding result [1]: no binding
B6: GST-BRCA1 fragment F2 (BRCA1 residues 260-553) (other)
chain: KYQGSSVSNLHVEPCGTNTHASSLQHENSSLLLTKDRMNVEKAEFCNKSKQPGLARSQHNRWAGSKETCNDRRTPSTEKKVDLNADPLCERKEWNKQKLPCSENPRDTEDVPWITLNSSIQKVNEWFSRSDELLGSDDSHDGESESNAKVADVLDVLNEVDEYSGSSEKIDLLASDPHEALICKSERVHSKSVESNIEDKIFGKTYRKKASLPNLSHVTENLIIGAFVTEPQIIQERPLTNKLKRKRRPTSGLHPEDFIKKADLAVQKTPEMINQGTNQTEQNGQVMNITNSGH
notes: Produced in bacteria; also called fragment 2; not shown: glutathione S-transferase (GST) fusion tag
